Our source for the stoichiometry N (subunits/complex) and stoichiometry N (per diffusing complex) values is paper PMC6039492.

For experiment [1], the target named is mGlu2 mutated to be locked in the inactive conformation (HA-ST-mGlu2-515NGlyc-L698C-L729C-F756D), cross-linked with CuP (rat) (UniProt P31421). The experiment is described as follows: two-photon scanning number and brightness (sN&B) fluctuation microscopy; live cultured rat hippocampal neurons, SNAP-tag labelled with Alexa488, incubated with 150 μM CuP for the last 10 min of labelling, imaged in the absence of ligand; 90-600 subunits/Veff; apparent stoichiometry (lower with CuP).

Experiment [2] deals with GABAB receptor (heterodimer of GABAB1 and GABAB2), untagged and SNAP-tagged subunits in three combinations (rat) (UniProt Q9Z0U4). Kind of experiment: two-photon scanning number and brightness (sN&B) fluctuation microscopy; live cultured rat hippocampal neurons, GABAB1 and/or GABAB2 SNAP-tagged and labelled with Alexa488, corrected for the theoretical number of fluorophores per heterodimer; across expression levels.

Sequence of GABAB receptor (heterodimer of GABAB1 and GABAB2), untagged and SNAP-tagged subunits in three combinations (Q9Z0U4 20-960): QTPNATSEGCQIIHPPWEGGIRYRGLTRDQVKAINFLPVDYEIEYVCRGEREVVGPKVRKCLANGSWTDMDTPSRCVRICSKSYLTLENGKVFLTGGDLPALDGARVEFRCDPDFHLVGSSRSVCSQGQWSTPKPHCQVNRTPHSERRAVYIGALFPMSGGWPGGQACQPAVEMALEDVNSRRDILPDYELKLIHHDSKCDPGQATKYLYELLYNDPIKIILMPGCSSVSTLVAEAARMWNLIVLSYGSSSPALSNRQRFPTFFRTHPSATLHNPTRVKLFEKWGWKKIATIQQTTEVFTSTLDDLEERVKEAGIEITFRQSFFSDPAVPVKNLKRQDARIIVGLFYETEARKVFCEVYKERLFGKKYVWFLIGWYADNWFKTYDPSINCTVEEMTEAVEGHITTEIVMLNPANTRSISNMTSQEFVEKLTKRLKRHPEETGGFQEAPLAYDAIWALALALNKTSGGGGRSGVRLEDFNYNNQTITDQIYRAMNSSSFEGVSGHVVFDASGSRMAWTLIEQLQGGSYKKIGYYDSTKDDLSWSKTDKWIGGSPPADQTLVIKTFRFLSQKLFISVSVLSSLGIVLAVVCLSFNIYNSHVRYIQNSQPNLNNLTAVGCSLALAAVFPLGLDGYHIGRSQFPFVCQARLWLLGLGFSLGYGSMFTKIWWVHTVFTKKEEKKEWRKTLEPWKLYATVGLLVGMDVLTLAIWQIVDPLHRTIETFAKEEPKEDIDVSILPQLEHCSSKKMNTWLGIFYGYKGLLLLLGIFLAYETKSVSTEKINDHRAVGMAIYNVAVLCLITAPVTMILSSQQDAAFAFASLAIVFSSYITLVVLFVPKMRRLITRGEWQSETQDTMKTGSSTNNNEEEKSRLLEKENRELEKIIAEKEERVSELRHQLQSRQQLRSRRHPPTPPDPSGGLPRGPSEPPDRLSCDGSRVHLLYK
Sequence of GABAB receptor (heterodimer of GABAB1 and GABAB2), untagged and SNAP-tagged subunits in three combinations (O88871 41-940): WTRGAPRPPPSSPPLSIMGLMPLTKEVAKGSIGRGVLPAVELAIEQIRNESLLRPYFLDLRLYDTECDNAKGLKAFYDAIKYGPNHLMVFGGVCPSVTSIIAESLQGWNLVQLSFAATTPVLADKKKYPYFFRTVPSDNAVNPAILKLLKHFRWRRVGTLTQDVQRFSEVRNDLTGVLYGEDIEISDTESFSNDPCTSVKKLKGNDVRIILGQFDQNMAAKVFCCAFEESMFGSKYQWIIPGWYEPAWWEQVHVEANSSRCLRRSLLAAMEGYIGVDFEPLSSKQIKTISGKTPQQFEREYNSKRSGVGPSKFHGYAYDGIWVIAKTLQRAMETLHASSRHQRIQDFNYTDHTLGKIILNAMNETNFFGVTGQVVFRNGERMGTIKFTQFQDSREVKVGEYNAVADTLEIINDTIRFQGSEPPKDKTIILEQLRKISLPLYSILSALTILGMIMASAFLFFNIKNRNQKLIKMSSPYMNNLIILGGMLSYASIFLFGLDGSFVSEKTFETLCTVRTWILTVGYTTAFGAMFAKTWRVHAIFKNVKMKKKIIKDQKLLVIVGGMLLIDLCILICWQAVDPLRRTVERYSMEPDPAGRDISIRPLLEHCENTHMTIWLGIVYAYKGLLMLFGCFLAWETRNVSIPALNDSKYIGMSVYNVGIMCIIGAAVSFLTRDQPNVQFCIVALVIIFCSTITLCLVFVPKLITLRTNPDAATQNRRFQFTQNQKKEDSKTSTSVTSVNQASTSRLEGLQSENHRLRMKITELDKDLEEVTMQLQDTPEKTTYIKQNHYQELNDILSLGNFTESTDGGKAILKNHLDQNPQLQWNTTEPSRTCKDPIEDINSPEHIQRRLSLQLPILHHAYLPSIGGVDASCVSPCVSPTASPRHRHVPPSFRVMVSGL

Regarding “mGlu2 mutated to be locked in the inactive conformation (HA-ST-mGlu2-515NGlyc-L698C-L729C-F756D), cross-linked with CuP (from UniProt P31421 19-872) (receptor)”, in experiment [1], the stoichiometry N (subunits/complex) turned out to be 2.3.

Consider “GABAB receptor (heterodimer of GABAB1 and GABAB2), untagged and SNAP-tagged subunits in three combinations (from UniProt Q9Z0U4 20-960; O88871 41-940) (complex)”, for which the stoichiometry N (per diffusing complex) in experiment [2] fell in the range of 2 to 8.
